Experimental data published in PMC4497409 (2015).

Biological target: hFZD7 (Homo sapiens (Human), UniProt O75084)
Assay: SPR equilibrium, Norrin immobilised, monomeric CRD analyte

B1: Norrin (protein)
chain 1: DSDPRRCMRHHYVDSISHPLYKCSSKMVLLARCEGHCSQASRSEPLVSFSTVLKQPFRSSCHCCRPQTSKLKALRLRCSGGMRLTATYRYILSCHCEECNS
chain 2: DSDPRRCMRHHYVDSISHPLYKCSSKMVLLARCEGHCSQASRSEPLVSFSTVLKQPFRSSCHCCRPQTSKLKALRLRCSGGMRLTATYRYILSCHCEECNS
With B1 the Kd was > 100 µM.
